Experimental data from US20240132589A1 (ONCORESPONSE, published 2024).
Values belong to the binder of their own block, whether it stands above or below them.

Assays:
[1] = target: T1, Human LILRB2 on primary human myeloid cells (human, UniProt Q8N423 22-597); assay: flow cytometry, AF647-conjugated antibody on human monocytes (15 subjects), average
T1 construct: whole, on cells; the cell type is named under assay; also called LILRB2 on monocytes, M0 and M2c macrophages, myeloid dendritic cells, neutrophils
T1 sequence (Q8N423 22-597): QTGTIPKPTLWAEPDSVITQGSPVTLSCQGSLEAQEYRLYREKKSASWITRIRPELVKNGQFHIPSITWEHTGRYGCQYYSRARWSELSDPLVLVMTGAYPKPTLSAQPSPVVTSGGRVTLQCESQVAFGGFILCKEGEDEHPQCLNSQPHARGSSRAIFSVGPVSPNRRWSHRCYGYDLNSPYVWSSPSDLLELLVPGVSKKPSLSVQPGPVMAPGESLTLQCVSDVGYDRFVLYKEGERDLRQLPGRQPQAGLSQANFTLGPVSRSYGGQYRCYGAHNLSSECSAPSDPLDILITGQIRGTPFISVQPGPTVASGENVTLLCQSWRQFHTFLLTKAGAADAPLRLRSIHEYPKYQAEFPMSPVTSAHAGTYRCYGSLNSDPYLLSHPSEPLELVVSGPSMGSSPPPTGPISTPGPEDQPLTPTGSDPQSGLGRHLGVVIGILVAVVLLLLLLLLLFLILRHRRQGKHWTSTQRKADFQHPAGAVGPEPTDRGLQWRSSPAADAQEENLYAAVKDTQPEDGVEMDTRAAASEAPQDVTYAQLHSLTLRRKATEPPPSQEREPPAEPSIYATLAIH
Method: Anti-LILRB2 antibodies were evaluated for their ability to bind myeloid cell subsets expressing LILRB2, including monocytes, M0 macrophages, and M2c macrophages. M2c macrophages are used as a surrogate for tumor-associated macrophages, a suppressive macrophage commonly found in the tumor microenvironment. Frozen monocytes were removed from storage in vapor phase liquid nitrogen and thawed by gentle swirling in a water bath at 37° C., then resuspended in X-VIVO™ 15 media with 10% FBS. PBMC were placed in a 15 mL conical tube and centrifuged at 300×g for 5 minutes, then supernatant was removed. Cells were resuspended in Assay Medium (X-VIVO™ 15+10% FBS) at a cell density of 2.5×10⁵ cells/mL. Cells were plated into 96-well flat bottom plates at 100 μL/well (25K cells/well). M0 and M2c macrophages were generated as described in Example 10 and collected from flasks by incubation for 15 min at RT in Macrophage Detachment Solution DXF, then removed from the flask into X-VIVO™ 15 medium. Following centrifugation, the cells were resuspended in FACS Blocking Buffer D (FACS Buffer+10% FBS+0.5 mg/mL human IgG1) then incubated at 4° C. for 30 minutes. […]

[2] = target: T2, Human LILRB1 on transiently transfected HEK293-6E cells (human, UniProt Q8NHL6 24-650); assay: flow cytometry, transiently transfected HEK293-6E cells
T2 construct: whole, on cells; also called hLILRB1
T2 sequence (Q8NHL6 24-650): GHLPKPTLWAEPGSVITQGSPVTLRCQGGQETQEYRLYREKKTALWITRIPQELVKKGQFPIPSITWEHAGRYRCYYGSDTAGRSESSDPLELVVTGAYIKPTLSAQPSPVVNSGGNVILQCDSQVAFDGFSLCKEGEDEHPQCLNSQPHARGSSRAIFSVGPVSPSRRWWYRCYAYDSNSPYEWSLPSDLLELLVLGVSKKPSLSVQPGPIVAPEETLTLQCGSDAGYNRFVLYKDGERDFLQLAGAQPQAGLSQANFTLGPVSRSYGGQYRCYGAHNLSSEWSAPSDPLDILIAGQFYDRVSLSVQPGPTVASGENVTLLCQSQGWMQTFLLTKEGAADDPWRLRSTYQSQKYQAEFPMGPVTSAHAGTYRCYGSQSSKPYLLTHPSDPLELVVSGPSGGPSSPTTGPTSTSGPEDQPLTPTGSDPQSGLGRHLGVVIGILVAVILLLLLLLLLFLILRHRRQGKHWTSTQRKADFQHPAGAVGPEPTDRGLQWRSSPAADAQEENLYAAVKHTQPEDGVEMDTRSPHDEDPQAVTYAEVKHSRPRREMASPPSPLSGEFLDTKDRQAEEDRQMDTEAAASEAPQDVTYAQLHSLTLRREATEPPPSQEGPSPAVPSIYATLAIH
Method: To determine that the anti-LILRB2 antibodies specifically bind to LILRB2 and not other LILRB and LILRA family members, a cross-reactivity assay was performed. Cross-reactivity of the LILRB2 antibodies to other LILRB proteins was assessed by antibody binding to transiently transfected HEK293-6E cells, measured by flow cytometry. Binding was evaluated to HEK293-6E cells transiently transfected with human LILRB-1, -2, -3, -4, and 5 plasmids (Origene, Nos. RC219949, RC217935, RC211228, RC220932, RC206516) or to cells transiently transfected with human LILRA-1, -2, -4, -5, and -6 plasmids (Origene, Nos. RC210808, RC205626, RC220452, RC212310 RC212965). […] Murine primary antibodies to LILRA and LILRB targets and corresponding isotype controls were used to confirm specific binding of all targets tested (R&D Systems) while an AF647 F(ab′)₂ fragment goat anti-mouse antibody (Jackson ImmunoResearch, No. 115-606-062) was used for the detection of bound positive control antibodies. No binding of B2A-IgG4 or B2A-IgG1 to LILRB-1, -3, -4, or -5 was observed, and no binding of either antibody to LILRA-1, -2, -4, -5, or -6 was observed, confirming specificity of these antibodies.

[3] = target: T3, Recombinant human LILRB2 protein (ELISA antigen) (human, UniProt Q8N423 22-460); assay: ELISA, plate-coated recombinant human LILRB2
T3 construct: also called LILRB2-His; recombinant LILRB2
T3 sequence (Q8N423 other isoform, or with tags, fused parts or gaps limits assumed): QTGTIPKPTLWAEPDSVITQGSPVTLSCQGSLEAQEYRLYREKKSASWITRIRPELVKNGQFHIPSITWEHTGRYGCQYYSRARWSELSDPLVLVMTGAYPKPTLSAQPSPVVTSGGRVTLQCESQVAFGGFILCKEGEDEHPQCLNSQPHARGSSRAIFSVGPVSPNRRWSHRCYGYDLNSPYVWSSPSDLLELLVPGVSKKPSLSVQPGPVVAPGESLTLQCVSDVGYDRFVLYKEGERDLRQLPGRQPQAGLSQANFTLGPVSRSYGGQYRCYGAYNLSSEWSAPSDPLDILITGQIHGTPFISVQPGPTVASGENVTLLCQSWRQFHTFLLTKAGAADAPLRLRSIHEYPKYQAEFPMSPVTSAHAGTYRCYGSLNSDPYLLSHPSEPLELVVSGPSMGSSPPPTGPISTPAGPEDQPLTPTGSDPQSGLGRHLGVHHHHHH
Method: (§1) To confirm binding to human and cynomolgus LILRB2, antibodies in supernatants were evaluated for binding by enzyme-linked immunosorbent assay (ELISA). Recombinant LILRB2 proteins (human: SEQ ID NO: 48; cynomolgus) were diluted in PBS to 2 μg/mL and added to 384-well high-binding ELISA plates (Greiner Bio-One Microlon™) at 25 μL/well and incubated at 4° C. overnight. The plates were washed three times with Wash Buffer (0.05% Tween® 20 in PBS), using a microplate washer and then blocked with 90 μL/well of ELISA Blocking Buffer A (1% BSA in PBS) for 1 hour at room temperature (RT). After blocking, 25 μL/well of LILRB2 antibodies or isotype control were added to the plates and incubated for 1 hour at RT. After primary antibody binding, plates were washed three times with Wash Buffer using a microplate washer. Secondary detection antibody (HRP-goat anti-rabbit Fab fragment) was diluted to 1:3000 in assay diluent (1% BSA in PBS) and 25 μL/well was added to plates and incubated at RT protected from light for 1 hour. Following incubation, plates were washed four times with Wash Buffer, using a microplate washer. After removal of the final wash, 25 μL/well of 1-Step™ Ultra TMB-ELISA Substrate Solution (Thermo Fisher, No. 34028) was added and plates were incubated for 5-10 min at RT, protected from light. After development, the reaction was stopped by addition of 25 μL/well of 0.3 M HCl, and plates were read using an EnVision (Perkin Elmer) microplate reader at 450 nm. EC₅₀ values were calculated based on log concentration of the primary antibodies at optical density at 450 nm.
Select humanized variant antibodies were purified and tested for their ability to bind human LILRB2 by ELISA, using the method described in Example 2, and binding to HEK293T cells expressing human LILRB2, using the method described in Example 4. Representative data are shown for IgG4 variants in Table 6.

[4] = target: T3, Recombinant human LILRB2 protein (ELISA …); assay: ELISA, immobilized LILRB2-His; conditioned media of transient transfections
Method: as §1
Twenty-five IgG4 variants were expressed in mammalian cell culture as a combinatorial library of the five light and five heavy chains. In addition, B2A-IgG4 was included as a transfection control. The conditioned media from these transient transfections were assayed for human IgG concentration. A plate-based ELISA (see Example 2) was performed in which LILRB2-His was immobilized, and binding of humanized mAb variants was detected via an anti-human IgG4 HRP-labeled secondary antibody. The parental rabbit/human chimera clone transfection served as the benchmark EC₅₀ positive control.

EC50 [1]: 0.0356 µg/mL
B1: B2H1-55 (antibody, V domains shown)
VH: EVQLLESGGGLVQPGTSLTLSCAASGFSLSTYAMSWVRQAPGKGLEWIGWIYNDGSTYYAAWAKGRFTISKDTSKTTLYLQITSLRAEDTATYFCAREGDYIGYFNIWGQGTLVTVSS
VL: DVVMTQTPSSVSAALGGTVTIKCQASQSIGSNLAWYQLKPGQRPKLLIYAAATLASGGSSRFKGSGSGTDFTLTISSLEPADAATYYCQSYVSGSSDVAFGGGTEVVVK
notes: Humanized variant, human IgG1 / kappa; also called humanized variant B2H1-55; humanized LILRB2 antibody B2H1-55

MFI [2]: 43 MFI
B2: B2A-IgG1 (antibody)
heavy: not shown
light: DVVMTQTPSSVSAALGGTVTIKCQASQSIGSNLAWYQLKPGQRPKLLIYAAATLASGGSSRFKGSGSGTDFTLTISDLECADAATYYCQSYVSGSSDVAFGGGTEVVVKRTVAAPSVFIFPPSDEQLKSGTASVVCLLNNFYPREAKVQWKVDNALQSGNSQESVTEQDSKDSTYSLSSTLTLSKADYEKHKVYACEVTHQGLSSPVTKSFNRGEC
notes: Rabbit variable regions on human IgG1 / kappa constant regions; AF647-conjugated in some flow assays; also called B2A-IgG1 chimera; anti-LILRB2 B2A-IgG1

EC50 [3]: 2.35 ng/mL
EC50 [4]: 2.74 ng/mL
B3: B2A-IgG4 (antibody)
heavy: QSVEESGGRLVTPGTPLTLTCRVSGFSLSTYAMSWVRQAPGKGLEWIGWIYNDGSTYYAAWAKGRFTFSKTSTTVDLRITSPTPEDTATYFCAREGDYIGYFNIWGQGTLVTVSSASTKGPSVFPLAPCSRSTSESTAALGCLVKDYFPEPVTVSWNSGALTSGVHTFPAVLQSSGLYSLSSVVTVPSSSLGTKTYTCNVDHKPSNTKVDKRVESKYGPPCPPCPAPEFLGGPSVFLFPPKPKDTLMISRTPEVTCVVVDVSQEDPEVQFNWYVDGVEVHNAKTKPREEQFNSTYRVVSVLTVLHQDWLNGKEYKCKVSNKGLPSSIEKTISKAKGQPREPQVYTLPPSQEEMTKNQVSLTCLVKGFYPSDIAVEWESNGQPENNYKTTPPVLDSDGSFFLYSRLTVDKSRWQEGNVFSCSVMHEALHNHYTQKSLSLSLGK
light: B2 light
notes: Rabbit variable regions on human IgG4 / kappa constant regions; also called B2A-IgG4 chimera; Parent B2A-IgG4
